Here are results for one molecule from PMC3572128.

The experiment has as its target caspase-8 (P10 and P18 subunits reconstituted in their active form). Briefly: flow cytometry of giant unilamellar vesicles; CL-containing GUVs in PBS; caspase-8 290 nM bound to the vesicles, fluorescent Bid added at 10 to 100 nM; vesicle fluorescence recorded online.

B1: full-length Bid (C15S, C28S), fluorescently labelled (natural protein)
chain: MDCEVNNGSSLRDESITNLLVFGFLQSSSDNSFRRELDALGHELPVLAPQWEGYDELQTDGNRSSHSRLGRIEADSESQEDIIRNIARHLAQVGDSMDRSIPPGLVNGLALQLRNTSRSEEDRNRDLATALEQLLQAYPRDMEKEKTMLVLALLLAKKVASHTPSLLRDVFHTTVNFINQNLRTYVRSLARNGMD
modifications: Bodipy488 or Alexa647 maleimide labelling (legends and results also say Alexa488)
In the case of B1, the mean fluorescence of GUVs + caspase-8 + Bid (0 min) amounted to 84 a.u.
